According to the domain aggregation screens of Martell et al. (2025):

Assay: soluble fraction after stress (log2 fold change); higher = more stays soluble; pooled small domains, quantitative proteomics
Settings: stress: 75 degC
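Also: 20 min heating vs room temperature control held 20 min.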

| Sequence | soluble fraction (log2) |
| --- | --- |
| HMASQEESVATYIQDYYRNPKTGESMVSDDMVEEFYKTHPEWEDQADGSKEGMEAVLDNFNEFFEINYG | 0.333 |
| HMASSRPLAEGDFVRLRAGGATGRIESIKGQKATVQMGGLKVHAPLRDLLPVAEPIKQVSTASNT | -0.00256 |
| HMASVAKHIRRLRTERHMTQGDLAEKLFVTRQTVSAWETGKAQPDLETLERIAVVLGVEVTELIYGAP | -0.707 |
| HMASVVEQVQVSNDISLFRQQNSPYWQARFKVAGKWYTRTTKRTEQTQAAFRAAELRSEVQTKISQGIPLR | -2.56 |
| HMATESYYVLKADVPAKTLVTQEMVEEIKVSKGGAPVNSIKIDNIKEKGVYTSIPLLKGDVLSASNTG | 0.131 |
| HMATKVSSGATVRDVADLLGLSSAELIKKLMMMGEMATLTQTLTDESIKSIADEYDRKIEIVSAAE | -0.0786 |
| HMATNVLEISTRNKNILIQDSLNLVESFYSKSDNQYWYKLVFKTKDDLNKFLQEVSEDENTITYKTSSI | -0.359 |
| HMATPEINNLGRLRNAINQSNVNWHQIIKRLQNEYPNNWRQILIAIDRHDLLFRYDVENYIKYG | -2.31 |
| HMATPIAGTKYTLNNTPVYGTEKGPSIGKRSGIYYTWDATVRNGRIRMTNSPARVGVPWQVSFWVEVNKL | -2.9 |
| HMATPRLAIVPQSAAGRRLDAVLAELFPEYSRSRLSAWIKTGDVMVDGAAPRGRDPVRGGEEITLTAVQ | -0.183 |
| HMATPTEHQLQAQARAVVEKAERLLDRASADDREDIINLIEKITDALAAEDFTAVKAPLAELSDILFYLE | -0.104 |
| HMATPTMEDYIEVIYSLVKTKGYARSADIAEKLEVYPSTVTKMLKKLDAEGYIVYEKYRGIALTDIGKKMG | -2.17 |
| HMATSNGEFVIPDGGLQFEELERSLLMQALKKSGGSQTGAARLLGLSRDTLRYRLEKFGIDAAAVRE | -0.39 |
| HMATVTVPNLKGMTPSGAESALAELNLKGAVGDSVESNDVENGKVASQDQAAGSDAKEGDTITYHLSS | 0.235 |
| HMATYETEVISGVNLRSAPNTSASVYRLLSKGEDIHVIQKVNDYWLKVQTKDGKIGYISASSKYTNYIA | -1.52 |
| HMAVEETFTITWLDRDGTVLEVDENVLKGTMPSFDGHIPPHDGLEFKGWDPEVVPVEGDATYTATYKA | 0.508 |
| HMAVENTGLSKRELEILQMMARGMSNQEIGDALFISLSTVKTHVASIFSKLQAVRRTQAVGIAKSLKII | -2.91 |
| HMAVFSKKQIFDTAFALFESKGLEAITARNLGKALSSSPAPIYAHYSSITELKNELISVAKDR | -3.06 |
| HMAVGDMISKLRTAANMSQEQFAELFGVTRQSVQKWENSFSVPELEKLIKISKYFDVSLDALVLRSDARVT | -2.5 |
| HMAVLFFVKRGERILGPTRLADLFQHAASGRLRANDLVGESPKGPWLPARQLDELEDAWASSRDATEAAAA | -0.817 |
| HMAVNQEFKNTINRIKYEYSLNQSQIADRLGVKKTYLSDMINGRVPYNETMNKKVNDVFPLPP | -0.169 |
| HMAVPTHVEFPVVGLQRSGITSLEQAIATVPGVSKAVVNVSDNRIFVDYDPTRSKVSDLLEVVRGAGFTP | -0.043 |
| HMAVQAESDIIKRAALLRNLGNTSMQLKNIDQAIDFYKQGIKLHPEDAELKYNLSQALRQKSQSNN | 0.055 |
| HMAVQEDAGLAREDLPPEVQGLLQEREAARAAKDWGKSDALRRQLQDLGYAIKDTAQGMEIKRT | 0.817 |
| HMAVRNTKQKQLVLSLLKNSGRPMTAGEIYRLAVQQYPNIAKSTVYRNLENLVSRGEVSQGMHQNGESFYS | -0.697 |
| HMAVSPEEQKKRIIELFRNRNEVSFKEIFDLPTKGHFVITLLAVLDLARQQIVIMEQLENEGIIKFTKGA | 0.134 |

| Sequence | soluble fraction (log2) |
| --- | --- |
| HMAVSSHAVKQRIRSLIQAEDPAAPLSDEALRLALSALGVDVSRRVIAKYRAELNIPSSSQRKK | -0.823 |
| HMAVSVPDVMGLTYEEAYNKITAEGLLVNRLESYTGLVEKGRVISQLPVGGEPAAKGSTVNVNVSL | 0.466 |
| HMAVTFPYTAYATDAVRLRERPSSSADVLAVIRKGDAVLVTGTDGNYAIVDYEGKRGYVVSSFIAT | -0.522 |
| HMAVWRIKVNYIPGYGVNIWSSYKNGHFTGKRAMHGETYEVLETKKDQDGNTWYKLDDHQWIEGRYAINAK | -2.45 |
| HMAYMETIERVEALAPGTKFNLKALFGTDWTQSRGTKLTLGKTFYEMVESGYVKTAKVLGKDSSNIMQYER | 0.0793 |
| HMAYSEEERNLIRSRLKDVAAALFKEKGIRDTNIDEIYTPVGISKTFFYSFFPSKAVLAIAIMK | -0.248 |
| HMAYVDWYENKQPTHEEAFKKLLGRIHPGAIVLLHSTSKTNGEILDELLTKWEEMGYRFGTLDELTGN | -1.58 |
| HMDAATDAIKAEVRALLEMANAQGIDTESIMLEAHEQTRNATEQDYYEAAKSALEAAIAGSNRDR | 0.435 |
| HMDADGEPIKLDQIGISHLSFTVADVKSLGEELVAKGVKLAAPMEAFTSPEGRISSIFVYDPDGILLQFDD | 0.136 |
| HMDADRLSPREREMLQFIARGQSNKEIARALELAESTVKIHVQNMLRKLNLSSRVQAAVFAVENGLG | -1.59 |
| HMDAGLAEIIRSFEDNLGGFPPAAREDLLGWREIFTDDLILLAIKKAALAGVRKWSYVNGILKVWKNEGVR | -2.23 |
| HMDAHYMEMKGKTGTAFTMLRPAGKIDIEGQIFDAVAEAGFIEKGEAIRVVKYENAQLIVRK | -0.446 |
| HMDAIAYLGSRLKEIRLKSGLSLREIARQLDVSPSFISQIENGKSQPSVATLYAFAKLLNVPVDVLFQPS | -2.59 |
| HMDAKNNPQVMAQIRAILTAKGLSEDEVKTRLKTKNIDVDKMTDQEIIAQRPAIEAIINEMEQEKKQKMG | 0.0493 |
| HMDALPLIQLEKEIKDFISQGQKINAIKHYRNVMDRDFGTTISLKLAKYTVDALAQNIKVDLTKGYDQ | -1.01 |
| HMDALTLSIDAQGALYWNGQPVSRELAAQRFVEAAAQRPQPELHLRADQNVAYRHVAMTLADASRAGLTR | -0.248 |
| HMDANAYTYKVSEDTDTRTGEKIFLVKVAEKLSRKEYIVVNNYMKSLGSYYSKFKHAFLFKENPTEKL | -0.55 |
| HMDANLGEIFKVYEQEIGALTPFVREEMLDAIDHYPRDWILDAIRESAKSNARNWKYTLAILKRWKAEG | -0.284 |
| HMDAPIIRLLNSLVQRAVTTTASDIHIEPFEGETKVRMRIDGVIIDYVTLQRALHQPLIARIKIMSNLD | -0.15 |
| HMDAPKTGSLVVSKAVNYGSWSGFTFRLHGTSDKGNSVDVTATTGSDGKAYFKDIEIGTYTLEEVN | -0.406 |
| HMDAQEAAWARKMMETLPEKQKLSVALRIEEGLSFKEIGEIIGSSEGAARVNYFHGIRRLRELL | -0.789 |
| HMDAQNLQDQLFGFLKANPTQAYPAQTLADGLRLDDANAFTKVVQALAALERGGKVKVNEEGAFQYDAEK | 0.43 |
| HMDARSTHIAAIHVLKSKLQLQDSDYRALLLTLTGQTSSKDLSEHQRRAVRNHMQQLAERMGVVQ | -1.46 |
| HMDATFKVRVSVPDLNIRSGPGTNYAATGRFTGVGVFTITAVQSGQGSSSGWGKLKSGAGWIALDYAKR | -3.78 |
| HMDATIGGFKITDSAIYSGVKNNVNAGVRGTYIDKDGQIAFGDSNSYLKYYKDTDGKWKLEVSASSVKF | 0.454 |
| HMDAVDKDGNHMTFKKWSEQLQEAFHALELYDTTRAKQILSELVKFQVDSDITKSLKAIITNIDDMMA | -1.13 |

| Sequence | soluble fraction (log2) |
| --- | --- |
| HMDAYDEVTTLSQMVASGKNTTVAHLKHLKEYHQTDYLRQAVEWLLSNRKNVSFSVDEVMQEVHN | -0.0471 |
| HMDAYLPETVQKLLDVMDFDVPYSAAQLMEKLGLKSRASFRKLYLLPALEKNLIAMGVPDKPTSRNQTYIR | -0.787 |
| HMDAYSYFIRTYPLVDDPLIGDIRRIFAETHDGNPAGDADVRHILWRLLFERELYPTLDEATADWY | -2.39 |
| HMDDEAVQIMTLHISKGLEFDVVFALGLVSRTPESKEIEELEAEKQRQLYVAMTRAEKWLIVAA | 0.202 |
| HMDDEDLAFLQREFVSYQQAMDYYGLGYKPVVRLSHISGSVYKIGKKVLIRRNIFEEYLRNHV | 0.0397 |
| HMDDFGERLRKLRVAQDLTQQQLGEKLGVVPSTIGKYEKVKDSYPSIEVLIKLSDFFSVSTDYLLKG | -2.19 |
| HMDDFTEVLLQYLKDHDGYSSIHDKTDAETIYNTFGVSKKTFKKAVGDLYKKRLIVLEEEGIRLLG | -0.151 |
| HMDDISLEEIKYISSKLETKVNEIEELLVRYYDGETNEAEEKELKEFFAQADVPAHLLAEKRLFMQLASQ | 0.245 |
| HMDDKVGKVFNYVQEKILTGEWDIGDKITPEISLSKELGVSRSVVREAIKKFVALNILSRTQGGGTYVNNL | -0.848 |
| HMDDNMNEQWKMILNSIAKKGSVTRQETEKILGIGQTRAHVLLKAMIHAGMIKAVGDGKKRRYVR | -2.28 |
| HMDDNRSLSDLAQQVFKRENIQVSRDTLSLLVSRLGSDRAVSRQEIEKLALFAGSNGKLTEEDIHNALG | 0.0459 |
| HMDDPISSMVNRIRLAFGLSVTDLAAVLGVERPTIYSWLKDGSTPAPARLTRVRQVLSLADTW | -0.729 |
| HMDDPITVAYRETEDAIAQVQREGFPVEMPPANSYIRRIQHELAGRFNLDSESYGDEPERRVRIRPQQ | -0.107 |
| HMDDPTVILFDPKNGQRKIVKWKAGLTLYSARRSAGISSAAEATIQRAGKSLSGRTATALEPGDVIRW | -1.74 |
| HMDDSSLFGRHTGIGFIVDDIDSGYQTLLAKGVSFEMPPTEQPWGGILALMKDPDGNIFYLD | -0.0389 |
| HMDDTRLLSEIGLSQRVLNALRARGIERVGQVLAMRPDQLLGIRNFGPRALQELRERLQENGYTEGPLFSG | 0.379 |
| HMDDVIDVYATYDVSPTNQISNIKLYSDAAHANPVTGEAGKSYNDITEGHPGYQFRWSGTTWVPI | -1.04 |
| HMDDVIEVEGKVVEVLPNTKFIVELANSHKITAHISGKLRMNYIRIMKGDNVTVEMSPYDLTKGRIIWRS | -0.165 |
| HMDDVVVLPFTAEFARMSSDDFVREILVGKIGMKRFVVGYNHRFGSGQQGDFASLQRMQGELGFVAVRVG | 0.368 |
| HMDDVYMVPVKDIAINDLKQEFEKLGIPNIQNTIPDKDLNFFIVRKDDLALVNYAIEKTMER | 0.0193 |
| HMDEAETELIRRMVSEHPPTTKRERDIVQMRLRGYLFVEIGEAYGISFQRAAQIYNAAVEKIKEYWD | -0.242 |
| HMDEEQIASRRALIMRAAREIMETQGMEALSIRKIAAMIQQTPGIIYHYFSGKEELMLAVVQEGYH | -0.00144 |
| HMDEFAGSAKPLADGAAPAGYDVKGNKDSMKYHEPGGRWYDATVAEVWFKTAADAEAAGFVKAGA | 0.167 |
| HMDEFHLSERERQILNLLVLGHTYKHIASDLNIAYATVNKHVSNVYAKLRVQSASEAVALAIRKGL | -0.992 |
